# B1: TPR t1 (parent)
# chain: GACCAAUCUGCCCUCAGAGCUCGAGAACAUCUUCGGAUGCAGAGGAGGCAGGCUUCGGUGGCGCGAUAGCGCCAACGUCCUCAACCUCCAAUGCAUCCCACCACAUGAUGAUGCCUGAAGAGCCUUGGUUUUUUG
# Variants of: B1
# Test: polymerase ribozyme fitness, log enrichment relative to wild type (log ratio); higher = more active; in vitro selection for triplet polymerase activity
# Method in brief: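 Mutant libraries were PCR-built and transcribed for each subunit of a heterodimeric triplet polymerase ribozyme and selected for one round in triplicate at −7 °C, frozen, before gel excision of extended constructs and streptavidin-bead capture. Input and output libraries were Illumina-sequenced, keeping genotypes with ≥10 input reads and ≥1 read per output. Fitness is a logarithmic ratio of genotype to wild-type enrichment, in base 2, using inverse-variance-weighted replicate averages.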
row,Variant,polymerase ribozyme fitness (log ratio)
1,A41G G57A U106C,-1.93
2,A41U A90G,-0.36
3,U78C G117U G128C G135C,-6.04
4,A27U C88A,-4.4
5,A5G C72G U87A A118U,-1.92
6,C4G U7C C34U U38G U54G G69U U109A A111G,-5.81
7,C12G G36U U132A,-1.56
8,A2G G122A U129C,-1.77
9,A5U A18C G57U C72U,-2.48
10,C3A U32A C64G C99A,-7.73
11,U112G G128C,-2.91
12,G58U A119G,0.849
13,U9A A83G,-0.27
14,C3U C11U G48A C56U C89G C101U,-3.51
15,G39C G71C C86U,-2.13
16,G61U U125G,-0.883
17,G36U G57A,-2.09
18,C12U G63U C85G C88A,-4.33
19,A5C C49G C53A U54G C98U U106A G128U,-2.13
20,G23A C64G C115U C123G,-6.62
21,G17U G69U A84C C124A,1.63

row,Variant,polymerase ribozyme fitness (log ratio)
1,A2G G10C G51C G52U,-5.66
2,G36U C40U A43C A46U G48C,-5.24
3,U55G U132A,-0.283
4,A29G C56G A91C U112A A121G G122C,-2.1
5,G52U,-0.82
6,A6U G61U,-0.0436
7,C12A A121U,1.74
8,G44U G63A U78A G117C,-6.55
9,G69U U78A A83C C102G,-3.71
10,A29C G57A C62U,-3.66
11,C11U A37U G45A,-1.81
12,A29G C56U,-1.17
13,G39C G120U,-1.35
14,G48A C56G C85G C94A A105G,-6.42
15,C34U C40U G42A A43G C104A U109A G135A,-4.93
16,C40A G48C A121C U129G,-0.25
17,G60A C124G,1.59
18,U33G G69A C70A A111U,-7.15
19,G36A A121U G128A,0.119
20,G63C G113U,-3.35
21,A26U A74G C98U,-4.46

row,Variant,polymerase ribozyme fitness (log ratio)
1,A27G A37U A121G,0.646
2,C40U C114U,-2.55
3,C8A G47U U78G U81G,-4.17
4,U21C G39U C56U C101U U112A,-0.219
5,U81G G122U C123G U129A,-4.51
6,C70G C98U,-2.99
7,G61A C86G G93C,-2.03
8,C3G C12G C62U,-2.34
9,A91C U129A,-2.78
10,G48U A74U,-0.741
11,U7A C22A C40G A68U A84C G110C,-6.51
12,C8U A74U C94A,-0.334
13,U9C A29U G61A C88U C102U,-4.47
14,G10C C13A C64U C82U A83C,-1.29
15,U21A G57U C85U G120U,-2.48
16,A26U A84C C102U C115A U133G,-6.15
17,C8A C56U,0.138
18,C8A G51C C53A C88A C114A,-5.74
19,G52C G57C C79G C86U C115U,-1.83
20,C11G G35A,-2.51
21,U9C G60U A105U A119G,-1.05

row,Variant,polymerase ribozyme fitness (log ratio)
1,U81A A90C U92C,-4.05
2,A18C C56G C72U,-1.24
3,A5C C20A A43C G44C G71A C97U U106A C115A,-6.63
4,C11G G71A U106G,-2.48
5,U78A G117A G128C,-5.04
6,G45A U59A C64U G128U,-2.82
7,A50C C62A C79U,-1.8
8,G61U A84G U96G,-0.74
9,A50C U87G G120C U131A,0.982
10,G45U A46G G69A U106A,-3.18
11,G113C C115U,-3.35
12,U9G C53U G61C C124G U131A,1.49
13,A43U C73U C86U U125G,-2.65
14,C53G G63A C94A C115G G128C,-6.79
15,A27C C82G G110U,-5.23
16,A103G C115U U129G U133A,-5.83
17,C4A C13G C49G C88G,-4.57
18,C11U G127U,-2
19,C11U G120C,1.11
20,G63U C89A G113A G120C U129G,-5.25
